# Assay results reported in the Human Domainome abundance scans (Beltran et al. 2025).
# ± gives the uncertainty stated by the source.
# B1: PDZ and LIM domain protein 2, residues 284 to 339; numbered along this chain, Q96JY6 (parent)
# chain: HTCEKCSTSIANQAVRIQEGRYRHPGCYTCADCGLNLKMRGHFWVGDELYCEKHAR
# Variants of: B1
# Assay: abundance fitness (aPCA) (normalised: wild type 0, dead -1); higher = more abundant; growth selection in yeast, the domain comes from the species named
# Conditions: Homo sapiens
row,Variant,abundance fitness
1,HTCEKCSTSIANQAVRIQEGRYRHPGKYTCADCGLNLKMRGHFWVGDELYCEKHAR [C27K],-0.39 ± 0.088
2,HTCEKCSTSSANQAVRIQEGRYRHPGCYTCADCGLNLKMRGHFWVGDELYCEKHAR [I10S],-0.505 ± 0.08
3,HTCEKCSTSNANQAVRIQEGRYRHPGCYTCADCGLNLKMRGHFWVGDELYCEKHAR [I10N],-0.119 ± 0.064
4,HTCEKCSTSLANQAVRIQEGRYRHPGCYTCADCGLNLKMRGHFWVGDELYCEKHAR [I10L],-0.413 ± 0.066
5,HSCEKCSTSIANQAVRIQEGRYRHPGCYTCADCGLNLKMRGHFWVGDELYCEKHAR [T2S],-0.559 ± 0.085
6,HTCEKCSTSIANQAVRIQEGRYRHPGCYRCADCGLNLKMRGHFWVGDELYCEKHAR [T29R],-0.261 ± 0.057
7,HTCEKCSTSIANQAVRIQEGRYRHPGCYWCADCGLNLKMRGHFWVGDELYCEKHAR [T29W],-0.758 ± 0.12
8,HTCEKCSTSIANQAVRIQEGRYRHPGCYTCPDCGLNLKMRGHFWVGDELYCEKHAR [A31P],-0.238 ± 0.084
9,HTCEKCSTHIANQAVRIQEGRYRHPGCYTCADCGLNLKMRGHFWVGDELYCEKHAR [S9H],-0.539 ± 0.18
10,RTCEKCSTSIANQAVRIQEGRYRHPGCYTCADCGLNLKMRGHFWVGDELYCEKHAR [H1R],-0.222 ± 0.11
11,HTCEKCSTSIANQAVRIQEGRYRHPGCWTCADCGLNLKMRGHFWVGDELYCEKHAR [Y28W],0.053 ± 0.16
12,HTCEKCSTSIANQAVRIQEGRYRHPGCGTCADCGLNLKMRGHFWVGDELYCEKHAR [Y28G],-0.471 ± 0.11
13,HTCEKCSTSIANQAVRIQEGRYRHPGCTTCADCGLNLKMRGHFWVGDELYCEKHAR [Y28T],0.116 ± 0.11
14,HTCEKCSTSIANQAVRIQEGRYRHPGCYTCADCGLNLKMRRHFWVGDELYCEKHAR [G41R],-0.216 ± 0.067
15,HTCEKCSTSIANQAVRIQEGRYRHPGCYTCADCGLNLKMREHFWVGDELYCEKHAR [G41E],-0.191 ± 0.088
16,HTCEKCSTSIANQAVRIQEGRYRHPGCYTCADCGLNQKMRGHFWVGDELYCEKHAR [L37Q],-0.599 ± 0.1
17,HTCEKCSTSIANQAVRIQEGRYRHPGCYTCADCGLNIKMRGHFWVGDELYCEKHAR [L37I],-0.322 ± 0.23
18,HTCEKCSTSIANQAVRIQEGRYRHPGCYTCADCGLNGKMRGHFWVGDELYCEKHAR [L37G],-0.288 ± 0.075
19,HTCEKCSTSIANQAVRIQEGRYRHPGCYTCADCGLNHKMRGHFWVGDELYCEKHAR [L37H],-0.807 ± 0.17
20,HTCEKCSTSIANQAVRIQEGRYRHPGCYTCADCGLNLKMRGHFWHGDELYCEKHAR [V45H],0.221 ± 0.11
21,HTCEKCSTSIANQAVRIQEGRYRHPGCYTCADCGLNLKMRGHFWQGDELYCEKHAR [V45Q],-0.092 ± 0.12
22,HTCEKCSTSIANQAVRIQEGRYRHPGCYTCADCGLNLKMRGHFWVGDENYCEKHAR [L49N],-0.942 ± 0.47
23,HTCEKCSTSIANQAVRIQEGRYRHPGCYTCADCGLNLKMRGHFWVGDEFYCEKHAR [L49F],-0.343 ± 0.19
24,HTCEKCSTSIANQAVRIQEGRYRHPGCYTCADCGLNLKMRGHFWVGDEWYCEKHAR [L49W],-0.39 ± 0.11

row,Variant,abundance fitness
1,HTCEKCSTSIANQAVRIQEGRYRHPGCYTCADCGLNLKYRGHFWVGDELYCEKHAR [M39Y],0.002 ± 0.067
2,HTCEKCSTSIANQAVRIQEGRYRHPRCYTCADCGLNLKMRGHFWVGDELYCEKHAR [G26R],0.127 ± 0.068
3,HTCEKCSTSIANQAVRIQEGRYRHPLCYTCADCGLNLKMRGHFWVGDELYCEKHAR [G26L],0.122 ± 0.064
4,HTHEKCSTSIANQAVRIQEGRYRHPGCYTCADCGLNLKMRGHFWVGDELYCEKHAR [C3H],-0.399 ± 0.18
5,HTGEKCSTSIANQAVRIQEGRYRHPGCYTCADCGLNLKMRGHFWVGDELYCEKHAR [C3G],-1.17 ± 0.17
6,HTCEKCSTSIANQQVRIQEGRYRHPGCYTCADCGLNLKMRGHFWVGDELYCEKHAR [A14Q],-0.329 ± 0.12
7,HTCEKCSTSIANQAVRIQEGRYRHPGCYTCADCGLNLKMRGGFWVGDELYCEKHAR [H42G],-0.301 ± 0.057
8,HTCEKCSTSIANQAVRIQEGRYRHPGCYTCADCGLNLKMRGPFWVGDELYCEKHAR [H42P],-0.053 ± 0.15
9,HTCEDCSTSIANQAVRIQEGRYRHPGCYTCADCGLNLKMRGHFWVGDELYCEKHAR [K5D],0.181 ± 0.12
10,HTCEMCSTSIANQAVRIQEGRYRHPGCYTCADCGLNLKMRGHFWVGDELYCEKHAR [K5M],-0.05 ± 0.083
11,HTCEKCSTSIHNQAVRIQEGRYRHPGCYTCADCGLNLKMRGHFWVGDELYCEKHAR [A11H],-0.085 ± 0.15
12,HTCEKCSTSINNQAVRIQEGRYRHPGCYTCADCGLNLKMRGHFWVGDELYCEKHAR [A11N],0.351 ± 0.13
13,HTCEKCSTSIYNQAVRIQEGRYRHPGCYTCADCGLNLKMRGHFWVGDELYCEKHAR [A11Y],-0.643 ± 0.26
14,HTCEKCSTSIANQAVRPQEGRYRHPGCYTCADCGLNLKMRGHFWVGDELYCEKHAR [I17P],-0.336 ± 0.062
15,HTCEKCSTSIANQAVRIQEGRYRHPGCYTCARCGLNLKMRGHFWVGDELYCEKHAR [D32R],0.124 ± 0.077
16,HTCEKCSTSIANQAVRIQEGRYRHPGCYTCACCGLNLKMRGHFWVGDELYCEKHAR [D32C],-0.188 ± 0.12
17,HTCEKFSTSIANQAVRIQEGRYRHPGCYTCADCGLNLKMRGHFWVGDELYCEKHAR [C6F],-0.667 ± 0.24
18,HTCEKCSTSIATQAVRIQEGRYRHPGCYTCADCGLNLKMRGHFWVGDELYCEKHAR [N12T],0.14 ± 0.071
19,HTCEKCSTSIANQAVRIQEGRYRHPGCYTCADCGLNLKMRGHFWVGDELYCEKHVR [A55V],-0.172 ± 0.084
20,HTCEKCSTSIANQAVRIQEGRYRHPGCYTCADCGLNLKMRGHFWVGDELYCEKHRR [A55R],0.005 ± 0.074
21,HTCEKCSTSIANQAVRIQEGRYRHPGCYTCADCGLNLKMRGHFPVGDELYCEKHAR [W44P],0.205 ± 0.064
22,HTCEKCSTSIANQAVRIQEGRYRHPGCYTCADCGLNLKMRGHFLVGDELYCEKHAR [W44L],0.096 ± 0.057
23,HTCEKCSTSIANQAVRIQEGRYRHPGCYTCADCGLNLKMRGHFAVGDELYCEKHAR [W44A],0.163 ± 0.062
